In patent CN117886936A one finds EC50 data, which are given here for 1 substance.

This test concerns the target hCD47-ECD-his (human) (UniProt Q08722). As to the kind of experiment: ELISA on coated human CD47-his after pre-incubating the antibody with human red blood cells (1E8/well). On the technique in general: An ELISA detects its analyte on a solid surface through an enzyme-linked reagent.
Chain of UniProt Q08722 (Q08722 other isoform, or with tags, fused parts or gaps): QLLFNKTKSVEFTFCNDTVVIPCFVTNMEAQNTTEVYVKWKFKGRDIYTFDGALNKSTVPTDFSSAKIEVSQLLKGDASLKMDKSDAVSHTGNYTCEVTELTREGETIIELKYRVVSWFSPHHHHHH

In general, EC50 refers to the midpoint of the concentration-response curve. On to ALX148, for which the EC50 was 3.15 µg/mL.
